Three substances from paper PMC9302814 can be followed below.

The assay concerns the target SARS-CoV-2 Spike. The assay is described as follows: SPR.

Take CC40.8: the Kd came out at 1.6 nM and the dissociation rate constant (koff) came out at 0.00038 s⁻¹.
In turn, CV3-25 gave a dissociation constant (Kd) of 2.5 nM and a dissociation rate constant (koff) of 0.00061 s⁻¹.
S2P6: the Kd is 9.7 nM and the koff was determined as 0.0033 s⁻¹.

For orientation: Kd means the free concentration of one partner at which half of the binding sites on the other are occupied at equilibrium, for simple one-to-one binding. The koff is the first-order rate constant of dissociation. Read a low koff as slow dissociation.
